Article PMC11650696

How the values were obtained:
TLR5 [1] = molecular target: TLR5 (UniProt O60602)
[2] = molecular target: Naip5 and Naip6 (Naip5/6) (mouse (endogenous in BMDMs))
TLR5 [3] = molecular target: TLR5 (UniProt O60602); remark: listed apart in the source

Sequence of UniProt O60602 (O60602 21-858): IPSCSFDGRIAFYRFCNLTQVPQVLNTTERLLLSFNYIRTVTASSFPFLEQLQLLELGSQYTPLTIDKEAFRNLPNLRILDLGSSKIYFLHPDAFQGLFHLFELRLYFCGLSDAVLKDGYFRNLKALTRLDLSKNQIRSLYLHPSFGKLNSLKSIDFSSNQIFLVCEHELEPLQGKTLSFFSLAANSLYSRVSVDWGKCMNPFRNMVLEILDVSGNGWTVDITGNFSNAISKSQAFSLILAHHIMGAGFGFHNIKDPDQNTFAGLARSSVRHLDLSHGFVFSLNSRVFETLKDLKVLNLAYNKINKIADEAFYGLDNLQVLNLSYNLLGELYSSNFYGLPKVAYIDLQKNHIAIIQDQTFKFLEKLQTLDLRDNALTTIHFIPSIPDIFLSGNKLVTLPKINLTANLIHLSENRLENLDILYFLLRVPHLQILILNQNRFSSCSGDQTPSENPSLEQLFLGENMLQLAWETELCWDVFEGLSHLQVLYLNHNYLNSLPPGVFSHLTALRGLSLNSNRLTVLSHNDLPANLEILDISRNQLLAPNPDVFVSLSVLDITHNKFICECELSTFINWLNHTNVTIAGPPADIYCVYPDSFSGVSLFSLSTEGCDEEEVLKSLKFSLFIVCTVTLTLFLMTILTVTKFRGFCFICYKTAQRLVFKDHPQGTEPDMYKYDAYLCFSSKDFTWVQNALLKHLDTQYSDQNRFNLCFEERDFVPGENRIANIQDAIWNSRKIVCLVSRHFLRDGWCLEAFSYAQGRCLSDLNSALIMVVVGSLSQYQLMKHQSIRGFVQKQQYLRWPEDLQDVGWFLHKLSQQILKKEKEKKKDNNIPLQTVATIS

Row | Substance | TLR5 stimulatory activity, EC50 (NF-κB luciferase reporter assay, stably transfected CHO K1 cells) (TLR5 [1]) [ng/mL] | Inflammasome EC50 (IL-1β secretion of LPS-primed mouse BMDMs after transfection of the protein) [2] [ng/mL] | TLR5 EC50 (NF-κB luciferase reporter assay, stably transfected CHO K1 cells) (TLR5 [3]) [ng/mL]
1 | FliC flagellin monomers isolated from S. Typhimurium strain SL1344 (ΔflgM) (from UniProt P06179 1-495) (natural protein) | 1.1 | 2 | 1.2
2 | FliC^ΔD3 (from UniProt P06179 1-495) (natural protein) |  |  | 0.1
